Laboratory results: patent publication US7838231 (REGENTS OF THE UNIVERSITY OF MICHIGAN, dated 2010)

How the values were obtained:
Assay in all cases: direct yeast two-hybrid assay
[1] = molecular target: T1, BBS2, human full length, yeast two-hybrid prey (human, UniProt Q9BXC9 1-721)
T1 sequence (looked up): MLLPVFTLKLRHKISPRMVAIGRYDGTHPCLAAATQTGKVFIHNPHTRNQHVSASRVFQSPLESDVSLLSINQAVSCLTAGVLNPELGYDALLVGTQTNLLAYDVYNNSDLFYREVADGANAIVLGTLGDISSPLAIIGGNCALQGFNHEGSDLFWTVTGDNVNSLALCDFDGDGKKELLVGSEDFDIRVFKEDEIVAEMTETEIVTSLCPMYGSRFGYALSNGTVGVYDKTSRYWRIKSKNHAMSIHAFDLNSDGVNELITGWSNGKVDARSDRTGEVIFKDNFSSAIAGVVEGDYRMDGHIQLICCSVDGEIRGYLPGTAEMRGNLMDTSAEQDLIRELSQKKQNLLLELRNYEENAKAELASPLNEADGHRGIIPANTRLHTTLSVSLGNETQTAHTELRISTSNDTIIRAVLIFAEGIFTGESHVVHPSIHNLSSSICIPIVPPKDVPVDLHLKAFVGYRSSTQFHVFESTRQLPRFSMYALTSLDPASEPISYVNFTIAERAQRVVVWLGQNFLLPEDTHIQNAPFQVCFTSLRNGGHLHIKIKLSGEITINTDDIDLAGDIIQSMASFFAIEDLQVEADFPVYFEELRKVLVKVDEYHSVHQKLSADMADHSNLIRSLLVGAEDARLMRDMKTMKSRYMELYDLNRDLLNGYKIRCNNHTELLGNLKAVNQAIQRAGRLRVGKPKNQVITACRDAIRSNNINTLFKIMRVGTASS

[2] = molecular target: T2, BBS7, human full length, yeast two-hybrid prey (human, UniProt Q8IWZ6 1-715)
T2 sequence (looked up): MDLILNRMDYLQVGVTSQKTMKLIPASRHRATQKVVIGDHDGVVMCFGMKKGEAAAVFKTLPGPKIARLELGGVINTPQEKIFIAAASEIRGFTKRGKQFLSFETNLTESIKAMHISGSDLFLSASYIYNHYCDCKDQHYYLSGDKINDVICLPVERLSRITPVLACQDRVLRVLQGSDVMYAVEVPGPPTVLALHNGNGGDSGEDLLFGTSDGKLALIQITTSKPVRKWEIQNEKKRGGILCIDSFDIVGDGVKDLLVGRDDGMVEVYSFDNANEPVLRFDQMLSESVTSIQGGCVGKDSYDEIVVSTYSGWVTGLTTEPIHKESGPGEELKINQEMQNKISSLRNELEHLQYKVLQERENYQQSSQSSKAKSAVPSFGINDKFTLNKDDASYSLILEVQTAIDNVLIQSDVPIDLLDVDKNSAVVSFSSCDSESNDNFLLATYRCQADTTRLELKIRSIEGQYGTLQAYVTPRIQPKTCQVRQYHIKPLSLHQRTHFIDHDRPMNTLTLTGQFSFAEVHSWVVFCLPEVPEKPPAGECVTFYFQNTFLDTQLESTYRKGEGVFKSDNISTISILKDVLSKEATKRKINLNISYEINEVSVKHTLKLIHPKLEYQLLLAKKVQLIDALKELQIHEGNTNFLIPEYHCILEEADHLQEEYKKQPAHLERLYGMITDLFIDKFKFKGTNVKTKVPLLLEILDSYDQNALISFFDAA

[3] = molecular target: T3, NPHP1, human full length, yeast two-hybrid prey (human, UniProt O15259 1-732)
T3 construct: also called nephrocystin 1
T3 sequence (looked up): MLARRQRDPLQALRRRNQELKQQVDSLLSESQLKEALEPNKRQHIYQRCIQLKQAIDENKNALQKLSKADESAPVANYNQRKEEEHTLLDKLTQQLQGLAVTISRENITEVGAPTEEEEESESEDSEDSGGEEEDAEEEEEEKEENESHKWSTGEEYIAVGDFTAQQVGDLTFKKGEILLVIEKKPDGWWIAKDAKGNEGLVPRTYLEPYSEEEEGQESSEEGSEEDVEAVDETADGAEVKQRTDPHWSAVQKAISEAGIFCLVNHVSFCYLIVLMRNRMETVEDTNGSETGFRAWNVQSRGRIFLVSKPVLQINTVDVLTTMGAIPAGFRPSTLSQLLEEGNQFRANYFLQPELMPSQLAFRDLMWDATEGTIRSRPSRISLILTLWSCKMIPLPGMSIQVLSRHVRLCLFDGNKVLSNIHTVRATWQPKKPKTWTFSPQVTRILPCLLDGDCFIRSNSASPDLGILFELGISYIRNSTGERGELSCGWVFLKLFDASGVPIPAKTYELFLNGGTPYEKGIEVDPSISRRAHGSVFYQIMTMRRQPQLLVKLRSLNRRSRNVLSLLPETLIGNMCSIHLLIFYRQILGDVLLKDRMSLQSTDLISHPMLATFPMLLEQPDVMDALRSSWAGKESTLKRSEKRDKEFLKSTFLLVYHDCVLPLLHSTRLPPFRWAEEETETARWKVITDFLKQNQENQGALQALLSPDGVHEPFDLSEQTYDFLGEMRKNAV

Measured: binding result

B1: full-length human nephrocystin-5 (NPHP5), yeast two-hybrid fusion (other, not shown: small tags and cut ends)
chain: MKPTGTDPRILSIAAEVAKSPEQNVPVILLKLKEIINITPLGSSELKKIKQDIYCYDLIQYCLLVLSQDYSRIQGGWTTISQLTQILSHCCVGLEPGEDAEEFYNELLPSAAENFLVLGRQLQTCFINAAKAEEKDELLHFFQIVTDSLFWLLGGHVELIQNVLQSDHFLHLLQADNVQIGSAVMMMLQNILQINSGDLLRIGRKALYSILDEVIFKLFSTPSPVIRSTATKLLLLMAESHQEILILLRQSTCYKGLRRLLSKQETGTEFSQELRQLVGLLSPMVYQEVEEQKLHQAACLIQAYWKGFQTRKRLKKLPSAVIALQRSFRSKRSKMLLEINRQKEEEDLKLQLQLQRQRAMRLSRELQLSMLEIVHPGQVEKHYREMEEKSALNIQKHWRGYRERKNFHQQRQSLIEYKAAVTLQRAALKFLAKCRKKKKLFAPWRGLQELTDARRVELKKRVDDYVRRHLGSPMSDVVSRELHAQAQERLQHYFMGRALEERAQQHREALIAQISTNVEQLMKAPSLKEAEGKEPELFLSRSRPVAAKAKQAHLTTLKHIQAPWWKKLGEESGDEIDVPKDELSIELENLFIGGTKPP
notes: Full-length NPHP5 cDNA (598 amino acid residues) fused to a GAL4 domain; also called KIAA0036
no binding: all assays above
